From publication PMC8106667 (Molecular cell, 2021) come the findings set out here.

Positions count from the first letter of the chain named. Names may count otherwise.

First the molecules themselves.
T1: MBP-ORC1 wild type, full length (human, UniProt Q13415 1-861)
T1 sequence (looked up): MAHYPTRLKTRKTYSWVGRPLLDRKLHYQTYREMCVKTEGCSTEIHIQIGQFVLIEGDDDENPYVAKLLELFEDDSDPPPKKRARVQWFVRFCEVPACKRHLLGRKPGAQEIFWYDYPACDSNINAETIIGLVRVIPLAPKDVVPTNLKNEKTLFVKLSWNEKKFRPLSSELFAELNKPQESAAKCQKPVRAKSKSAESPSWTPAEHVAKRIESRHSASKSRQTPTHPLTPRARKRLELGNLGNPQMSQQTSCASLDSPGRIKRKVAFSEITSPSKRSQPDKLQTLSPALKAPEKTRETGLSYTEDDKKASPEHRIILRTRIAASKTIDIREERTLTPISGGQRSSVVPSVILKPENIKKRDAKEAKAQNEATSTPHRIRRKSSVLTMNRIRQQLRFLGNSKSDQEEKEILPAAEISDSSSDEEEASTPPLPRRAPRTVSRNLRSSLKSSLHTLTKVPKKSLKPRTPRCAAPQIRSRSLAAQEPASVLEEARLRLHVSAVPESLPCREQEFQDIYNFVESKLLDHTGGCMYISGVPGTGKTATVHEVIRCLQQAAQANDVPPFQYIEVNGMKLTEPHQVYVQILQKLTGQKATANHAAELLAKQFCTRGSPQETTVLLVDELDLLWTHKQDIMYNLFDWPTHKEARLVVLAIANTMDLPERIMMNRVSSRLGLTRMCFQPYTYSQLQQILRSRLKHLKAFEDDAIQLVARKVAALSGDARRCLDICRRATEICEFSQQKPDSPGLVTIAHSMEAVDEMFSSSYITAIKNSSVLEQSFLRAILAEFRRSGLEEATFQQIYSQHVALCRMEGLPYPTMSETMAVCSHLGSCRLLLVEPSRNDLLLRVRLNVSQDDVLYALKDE

T2: MBP-ORC2 (human, UniProt Q13416 1-577)
T2 sequence (looked up): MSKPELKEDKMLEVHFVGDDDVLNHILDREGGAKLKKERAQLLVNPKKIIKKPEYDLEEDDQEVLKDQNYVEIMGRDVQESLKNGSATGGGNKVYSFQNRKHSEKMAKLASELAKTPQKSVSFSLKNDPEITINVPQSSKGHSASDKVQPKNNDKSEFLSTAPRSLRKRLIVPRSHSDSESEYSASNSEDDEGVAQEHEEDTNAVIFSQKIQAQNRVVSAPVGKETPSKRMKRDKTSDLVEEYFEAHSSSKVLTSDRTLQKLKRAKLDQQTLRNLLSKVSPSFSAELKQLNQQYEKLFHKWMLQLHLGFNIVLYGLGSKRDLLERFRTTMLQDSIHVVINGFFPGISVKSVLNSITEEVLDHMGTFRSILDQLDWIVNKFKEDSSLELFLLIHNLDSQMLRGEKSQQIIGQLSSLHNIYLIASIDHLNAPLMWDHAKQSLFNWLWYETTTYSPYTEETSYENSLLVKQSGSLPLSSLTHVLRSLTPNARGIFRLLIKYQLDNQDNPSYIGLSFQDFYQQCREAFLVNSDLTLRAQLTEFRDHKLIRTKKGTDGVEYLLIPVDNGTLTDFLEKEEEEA

T3: MBP-ORC1 R105Q (human, UniProt Q13415 1-861, R105Q)
T3 sequence (looked up): T1 sequence (looked up) with R105Q

T4: MBP-ORC1-PSM123 (Phosphorylation Site Mutant, S258A, S273A and T375A) (human, UniProt Q13415 1-861, S258A | S273A | T375A)
T4 sequence (looked up): T1 sequence (looked up) with S258A, S273A, T375A

T5: MBP-GFP-ORC1-HIS6 (human, UniProt Q13415 1-861)
T5 sequence (looked up): T1 sequence (looked up)

T6: ORC1-180-240-HIS6 wild type (human, UniProt Q13415 180-240)
T6 sequence (looked up): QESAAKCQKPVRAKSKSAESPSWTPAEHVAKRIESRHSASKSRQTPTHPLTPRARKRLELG

B1: MBP-ORC1 100–250 wild type (domain or fragment, human, UniProt Q13415 100-250, looked up)
chain: RHLLGRKPGAQEIFWYDYPACDSNINAETIIGLVRVIPLAPKDVVPTNLKNEKTLFVKLSWNEKKFRPLSSELFAELNKPQESAAKCQKPVRAKSKSAESPSWTPAEHVAKRIESRHSASKSRQTPTHPLTPRARKRLELGNLGNPQMSQQ
B2: MBP-ORC1 100–250 L237A (domain or fragment, human, UniProt Q13415 100-250, looked up)
chain: B1 chain with L138A
B3: GST-CDC6 wild type, full length (natural protein, human, UniProt Q99741 1-560, looked up)
chain: MPQTRSQAQATISFPKRKLSRALNKAKNSSDAKLEPTNVQTVTCSPRVKALPLSPRKRLGDDNLCNTPHLPPCSPPKQGKKENGPPHSHTLKGRRLVFDNQLTIKSPSKRELAKVHQNKILSSVRKSQEITTNSEQRCPLKKESACVRLFKQEGTCYQQAKLVLNTAVPDRLPAREREMDVIRNFLREHICGKKAGSLYLSGAPGTGKTACLSRILQDLKKELKGFKTIMLNCMSLRTAQAVFPAIAQEICQEEVSRPAGKDMMRKLEKHMTAEKGPMIVLVLDEMDQLDSKGQDVLYTLFEWPWLSNSHLVLIGIANTLDLTDRILPRLQAREKCKPQLLNFPPYTRNQIVTILQDRLNQVSRDQVLDNAAVQFCARKVSAVSGDVRKALDVCRRAIEIVESDVKSQTILKPLSECKSPSEPLIPKRVGLIHISQVISEVDGNRMTLSQEGAQDSFPLQQKILVCSLMLLIRQLKIKEVTLGKLYEAYSKVCRKQQVAAVDQSECLSLSGLLEARGILGLKRNKETRLTKVFFKIEEKEIEHALKDKALIGNILATGLP
B4: MBP-CDC6-HIS6 (natural protein, human, UniProt Q99741 1-560, looked up)
chain: B3 chain
B5: GST-CDC6-HIS6 (natural protein, human, UniProt Q99741 1-560, looked up)
chain: B3 chain
B6: MBP-ORC1-350-400 wild type (domain or fragment, human, UniProt Q13415 350-400, looked up)
chain: SVILKPENIKKRDAKEAKAQNEATSTPHRIRRKSSVLTMNRIRQQLRFLGN
B7: MBP-ORC1 180–240 (domain or fragment, human, UniProt Q13415 180-240, looked up)
chain: T6 sequence (looked up)

Test in all cases: pull-down
Assay [1] has as its target B3.
In assay [2] the target is T1, MBP-ORC1 wild type, full length.
A further assay deals with T2, MBP-ORC2.
The target in another assay is T3, MBP-ORC1 R105Q.
In assay [3] the target is T4, MBP-ORC1-PSM123 (Phosphorylation Site …).
The next assay deals with T5, MBP-GFP-ORC1-HIS6.
The target in assay [4] is T6, ORC1-180-240-HIS6 wild type.

In the case of B1, the binding result in assay [1] is recorded as “binds”.
The same measure, in the same setting: to B2 belongs “binds”.
In the case of B3, the binding result (in assay [2]; in the assay with MBP-ORC2; in the assay with MBP-ORC1 R105Q; in assay [3]) was “binds” each time.
As to B4, the binding result in the assay with MBP-GFP-ORC1-HIS6 was “binds”.
In the case of B5, the binding result in the assay with MBP-GFP-ORC1-HIS6 was “binds”.
For B6, the binding result in assay [4] was “binds”.
B7: in assay [1], the binding result is “binds”.
